One series has as its target PilB (Pseudomonas aeruginosa, UniProt P22608). To be noted: 1 mM ATP; minimal activity.
A further series concerns the target T1, FimX (Pseudomonas aeruginosa, UniProt Q9HUK6).
T1 construct: dimer in solution (ca. 150 kDa by SEC)
The experiment in a line: surface plasmon resonance (BIAcore T100), FimX immobilized on CM5 chip. Format: binding.

Series [1] concerns the molecule itself. Description: SEC; preparative SEC after affinity purification; Superdex 200 Increase, 25 mM Tris pH 8.0, 250 mM NaCl, 5 mM MgCl2, 5 mM β-mercaptoethanol. (In general: SEC sorts molecules by how far they enter the pores of the column.)
Series [2] concerns the molecule itself. The experiment in a line: SEC; Superdex 200 10/300; 50 μM hexameric PilB and 50 μM dimeric FimX or FimX(AAA), 30 min at RT, 25 mM Tris pH 8, 150 mM NaCl, 5 mM MgCl2, 500 μM c-di-GMP; each protein also run alone; fractions on SDS-PAGE.

For orientation: Kd means a measure of binding affinity in units of concentration. Lower therefore signals a tighter complex. Broadly, the stoichiometry N is a count of units in the complex or per binding partner.

With `Nc1ncnc2c1ncn2[C@@H]1O[C@H](COP(=O)(O)OP(=O)(O)OP(=O)(O)O)[C@@H](O)[C@H]1O` [ATP], the ATPase activity result on PilB is “PilB shows minimal ATPase activity in vitro that is not altered by addition of FimX”. Turning to `Nc1nc2c(ncn2[C@@H]2O[C@@H]3CO[P@](=O)(O)O[C@H]4[C@@H](O)[C@H](n5cnc6c(=O)[nH]c(N)nc65)O[C@@H]4CO[P@](=O)(O)O[C@H]3[C@H]2O)c(=O)[nH]1` [c-di-GMP], on FimX, the dissociation constant Kd came out at 88 ± 5.6 nM.

B1: 10XHis-MBP tagged recombinant PilB (natural protein)
chain: MNDSIQLSGLSRQLVQANLLDEKTAVQAQAQAQRNKLSLVTHLVQSKLVSGLALAELSAEQFGIAYCDLNSLDKESFPRDAISEKLVRQHRVIPLWRRGNKLFVGISDPANHQAINDVQFSTGLTTEAILVEDDKLGLAIDKLFESATDGLAGLDDVDLEGLDIGSADKSTQEDASAEADDAPVVRFVNKMLLDAIKGGSSDLHFEPYEKIYRVRFRTDGMLHEVAKPPIQLASRISARLKVMAGLDISERRKPQDGRIKMRVSKTKSIDFRVNTLPTLWGEKIVMRILDSSSAQMGIDALGYEEDQKELYLAALKQPQGMILVTGPTGSGKTVSLYTGLNILNTTDINISTAEDPVEINLEGINQVNVNPRQGMDFSQALRAFLRQDPDVIMVGEIRDLETAEIAIKAAQTGHMVMSTLHTNSAAETLTRLLNMGVPAFNLATSVNLIIAQRLARKLCSHCKKEHEVPRETLLHEGFPEDKIGTFKLYSPVGCDHCKNGYKGRVGIYEVVKNTPALQRIIMEEGNSIEIAEQARKEGFNDLRTSGLLKAMQGITSLEEVNRVTKD
notes: also called hexameric PilB; purified PilB; source: E. coli BL21(DE3), purified (Ni-NTA, amylose resin, SEC)
Regarding B1, the “stoichiometry N” value in series [1] turned out to be 6.

B2: 6X-His tagged FimX (natural protein)
chain: MAIEKKTIRLLILEDSQNEAERLVSLFRNAGHATRVHRLTSPEDLAETLQQSWDLLIAAPTSECLEPGEALATLRRQSRDIPFIQLVADNSSDAITDALMLGAQDALPQGEDERLVLVANRELAGLAERRARRAAELALREAEKRCQLLLDSSVDAITYVHDGMHIYANRSYMALFGYEDAEELEGLPVIDLIASCDQGAFKDFLKGYQNDQRQTELVCTGVKLDGQEFKARISLSAATYDGEPCIQVVIRGEVDNAELEEKLREVSSQDPVTGLYNRSHFLDLMDAAVQQAVTARKPSTLAYIHLNGYPSLQADHGLSGIDLLLGQLAGLMREQFGEEADLARFGDSIFAALFKGKTPEQAQAALQRLLKKVENHLFELNGRSAQATLSIGVAGLDEKTAKAQDVMNRAHRCADDAARKGGSQIKQYNPAEELAAAAQRGDVIAILQQALETNSFRLLFQPVISLRGDSHENYEVLLRLLNPQGQEVPPAEFLHAAKEAGLAEKIDRWVILNSIKLLAEHRAKGHQTKLFVHLSSASLQDPGLLPWLGVALKAARLPPESLVFQISEADATSYLKQAKQLTQGLATLHCQAAISQFGCSLNPFNALKHLTVQFIKIDGSFVQDLNQVENQEILKGLIAELHEQQKLSIVPFVESASVLATLWQAGATYIQGYYLQGPSQAMDYDFSSGDE
notes: also called dimeric FimX; purified FimX; source: purified as 6X-His tagged protein as described previously [17]
In the case of B2, the “stoichiometry N” value in series [2] is 2.

B3: 10XHis-MBP tagged recombinant PilT (natural protein)
chain: MDITELLAFSAKQGASDLHLSAGLPPMIRVDGDVRRINLPPLEHKQVHALIYDIMNDKQRKDFEEFLETDFSFEVPGVARFRVNAFNQNRGAGAVFRTIPSKVLTMEELGMGEVFKRVSDVPRGLVLVTGPTGSGKSTTLAAMLDYLNNTKYHHILTIEDPIEFVHESKKCLVNQREVHRDTLGFSEALRSALREDPDIILVGEMRDLETIRLALTAAETGHLVFGTLHTTSAAKTIDRVVDVFPAEEKAMVRSMLSESLQSVISQTLIKKIGGGRVAAHEIMIGTPAIRNLIREDKVAQMYSAIQTGGSLGMQTLDMCLKGLVAKGLISRENAREKAKIPENF
notes: also called hexameric PilT; source: E. coli BL21(DE3), purified (Ni-NTA, amylose resin, SEC)
Regarding B3, in series [1], the “stoichiometry N” value was determined as 6.

Source of the values: paper PMC5595344, “Interaction of the cyclic-di-GMP binding protein FimX and the Type 4 pilus assembly ATPase promotes pilus assembly” (PLoS Pathogens, 2017).
